Source: the RNAGym collection of RNA variant scans (doi:10.1021/acssynbio.7b00057)

B1: Pistol ribozyme (parent)
chain: GGGUCGUUGUUCCAUAAUCGCGUGGAUAUGGCACGCAAGUUUCUACCGGGCACCGUAAAUGUCCGACUGGAGCCGUUCGGGCGGCUAUAAACAGACCUCAGGCCCGAAGCGUGGCGGCACCUGCCGCCGGUGGUAAAAAAGAUCGGAAGAGCACACGUCU

Variants of: B1
Assay: aptazyme ON/OFF ratio, guanine; higher = stronger switching; co-transcriptional cleavage with and without guanine

| Variant | aptazyme ON/OFF ratio |
| --- | --- |
| U7G U8C G9U U10G U11A C12G C13U | 1.25 |
| U7G U8C G9U U10G C12G C13U | 1.23 |
| U7G U8C G9U U10G C12G C13A | 1.28 |
| U7G U8C G9U U10G C12G C13G | 1.23 |
| U7G U8C U10G U11C C12A | 1.57 |
| U7G U8C U10G U11C C12U | 1.34 |
| U7G U8C U10G U11C C12G | 2.08 |
| U7G U8C G9U U10C U11G C12U | 2.47 |
| U7G U8C G9U U10C U11G C12G | 1.1 |
| U7G U8C G9U U10C U11G C12A | 1.75 |
| U7G U8C G9U U11G C12G C13A | 1.08 |
| U7G U8C G9U U11G C12G C13G | 1.12 |
| U7G U8C G9U U11G C12G C13U | 1.09 |
| U7G U8C G9U U11C | 2.88 |
| U7G U8C G9U U11A | 1.8 |
| U7G U8C G9U U11G | 1.36 |
| U7G U8C G9U U11A C13U | 1.56 |
| U7G U8C G9U U11A C13A | 1.22 |
| U7G U8C G9U U11A C13G | 1.02 |
| U7G U8C G9U U10G U11C C13U | 1.18 |
| U7G U8C G9U U10G U11C C13A | 1.38 |
| U7G U8C G9U U10G U11C C13G | 1.09 |
| U7G U8C U10A U11C C12G | 1.16 |
| U7G U8C U10A U11C C12U | 1.03 |

| Variant | aptazyme ON/OFF ratio |
| --- | --- |
| U7G U8C U10A U11C C12A | 1.24 |
| U7G U8C G9U U11G C13G | 1.05 |
| U7G U8C G9U U11G C13U | 1.41 |
| U7G U8C G9U U11G C13A | 1.32 |
| U7G U8C U10A U11C C12G C13A | 1.11 |
| U7G U8C U10A U11C C12G C13U | 1.16 |
| U7G U8C U10A U11C C12G C13G | 1.06 |
| U7G U8C U10G U11A C13U | 1.19 |
| U7G U8C U10G U11A C13G | 1.13 |
| U7G U8C U10G U11A C13A | 1.16 |
| U7G U8C G9U U10G U11G C12G C13U | 1.25 |
| U7G U8C G9U U10G U11G C12G C13A | 1.11 |
| U7G U8C G9U U10G U11G C12G C13G | 1.23 |
| U7G U8C U10C U11C C12A C13G | 1.33 |
| U7G U8C U10C U11C C12A C13A | 1.27 |
| U7G U8C U10C U11C C12A C13U | 1.2 |
| U7G U8C G9U U11G C12A C13G | 1.35 |
| U7G U8C G9U U11G C12A C13A | 1.11 |
| U7G U8C G9U U11G C12A C13U | 1.38 |
| U7G U8C G9U U10G U11C C12A | 2.33 |
| U7G U8C G9U U10G U11C C12G | 1.38 |
| U7G U8C G9U U10G U11C C12U | 1.26 |
| U7G U8C U10C U11A C12U C13G | 1.08 |
| U7G U8C U10C U11A C12U C13A | 1.12 |

| Variant | aptazyme ON/OFF ratio |
| --- | --- |
| U7G U8C U10C U11A C12U C13U | 1.04 |
| U7G U8C G9U U10C U11C C13A | 1.34 |
| U7G U8C G9U U10C U11C C13U | 1.52 |
| U7G U8C G9U U10C U11C C13G | 1.08 |
| U7G U8C G9U U10G C12U C13A | 1.29 |
| U7G U8C G9U U10G C12U C13U | 1.34 |
| U7G U8C G9U U10G C12U C13G | 1.39 |
| U7G U8C G9U U10C U11C C12U C13A | 1.55 |
| U7G U8C G9U U10C U11C C12U C13U | 1.27 |
| U7G U8C G9U U10C U11C C12U C13G | 1.41 |
| U7G U8C U10C U11A C13U | 1.35 |
| U7G U8C U10C U11A C13G | 1.07 |
| U7G U8C U10C U11A C13A | 1.18 |
| U7G U8C U10G U11A C12A C13A | 1.11 |
| U7G U8C U10G U11A C12A C13G | 1.1 |
| U7G U8C U10G U11A C12A C13U | 1.12 |
| U7G U8C U10C C12U C13G | 1.19 |
| U7G U8C U10C C12U C13A | 1.15 |
| U7G U8C U10C C12U C13U | 1.27 |
| U7G U8C U10C U11G | 1.27 |
| U7G U8C U10C U11C | 1.14 |
| U7G U8C U10C U11A | 2.21 |
| U7G U8C U10G U11A C12U | 1.22 |
| U7G U8C U10G U11A C12G | 1.13 |

| Variant | aptazyme ON/OFF ratio |
| --- | --- |
| U7G U8C U10G U11A C12A | 1.15 |
| U7G U8C U10G U11A C12U C13U | 1.17 |
| U7G U8C U10G U11A C12U C13G | 1.15 |
| U7G U8C U10G U11A C12U C13A | 1.13 |
| U7G U8C U10A U11A C12A C13U | 1.15 |
| U7G U8C U10A U11A C12A C13A | 1.13 |
| U7G U8C U10A U11A C12A C13G | 1.14 |
| U7G U8C U10A U11A C12G C13U | 1.26 |
| U7G U8C U10A U11A C12G C13A | 1.1 |
| U7G U8C U10A U11A C12G C13G | 1.22 |
| U7G U8C G9U U11C C12G | 1.37 |
| U7G U8C G9U U11C C12U | 2.13 |
| U7G U8C G9U U11C C12A | 1.31 |
| U7G U8C U10A C12A C13G | 1.1 |
| U7G U8C U10A C12A C13A | 1.24 |
| U7G U8C U10A C12A C13U | 1.36 |
| U7G U8C G9U U11A C12G C13G | 1.13 |
| U7G U8C G9U U11A C12G C13A | 1.1 |
| U7G U8C G9U U11A C12G C13U | 1.22 |
| U7G U8C G9U U10G U11A C12U C13G | 1.23 |
| U7G U8C G9U U10G U11A C12U C13U | 1.36 |
| U7G U8C G9U U10G U11A C12U C13A | 1.21 |
| U7G U8C U10G C12G C13U | 1.08 |
| U7G U8C U10G C12G C13G | 1.13 |

| Variant | aptazyme ON/OFF ratio |
| --- | --- |
| U7G U8C U10G C12G C13A | 1.12 |
| U7G U8C U10G U11C C12G C13G | 1.18 |
| U7G U8C U10G U11C C12G C13U | 1.36 |
| U7G U8C U10G U11C C12G C13A | 1.28 |
| U7G U8C U10A | 1.33 |
| U7G U8C U10G | 1.31 |
| U7G U8C U10C | 2.63 |
| U7G U8C U10C U11A C12A C13G | 1.14 |
| U7G U8C U10C U11A C12A C13A | 1.26 |
| U7G U8C U10C U11A C12A C13U | 1.21 |
| U7G U8C U10G U11G C12A C13U | 1.29 |
| U7G U8C U10G U11G C12A C13G | 1.1 |
| U7G U8C U10G U11G C12A C13A | 1.09 |
| U7G U8C U10A U11C C12U C13A | 1.13 |
| U7G U8C U10A U11C C12U C13G | 1.12 |
| U7G U8C U10A U11C C12U C13U | 1.07 |
| U7G U8C G9U U10G U11G C12A | 1.31 |
| U7G U8C G9U U10G U11G C12G | 1.31 |
| U7G U8C G9U U10G U11G C12U | 1.35 |
| U7G U8C U10C U11G C12G C13A | 1.13 |
| U7G U8C U10C U11G C12G C13G | 1.08 |
| U7G U8C U10C U11G C12G C13U | 1.07 |
| U7G U8C G9U U10C U11G C12U C13U | 1.28 |
| U7G U8C G9U U10C U11G C12U C13G | 1.21 |

| Variant | aptazyme ON/OFF ratio |
| --- | --- |
| U7G U8C G9U U10C U11G C12U C13A | 1.34 |
| U7G U8C U10G U11A C12G C13A | 1.09 |
| U7G U8C U10G U11A C12G C13G | 1.21 |
| U7G U8C U10G U11A C12G C13U | 1.23 |
| U7G U8C U10A U11G C12A C13U | 1.19 |
| U7G U8C U10A U11G C12A C13G | 1.13 |
| U7G U8C U10A U11G C12A C13A | 1.08 |
| U7G U8C U10G U11G C13A | 1.22 |
| U7G U8C U10C U11G C12U C13G | 1.16 |
| U7G U8C U10C U11G C12U C13A | 1.29 |
| U7G U8C U10C U11G C12U C13U | 1.31 |
| U7G U8C G9U U10C U11C C12A C13G | 1.22 |
| U7G U8C G9U U10C U11C C12A C13A | 1.52 |
| U7G U8C G9U U10C U11C C12A C13U | 1.54 |
| U7G U8C U10C C12G | 1.37 |
| U7G U8C U10C C12U | 3.24 |
| U7G U8C U10C C12A | 1.22 |
| U7G U8C G9U U10G U11A | 1.21 |
| U7G U8C G9U U10G U11G | 1.55 |
| U7G U8C G9U U10G U11C | 1.15 |
| U7G U8C U10A U11A C13G | 1.18 |
| U7G U8C U10A U11A C13A | 1.18 |
| U7G U8C U10A U11A C13U | 1.21 |
| U7G U8C U10G U11C C13A | 1.33 |

| Variant | aptazyme ON/OFF ratio |
| --- | --- |
| U7G U8C U10G U11C C13U | 1.4 |
| U7G U8C U10G U11C C13G | 1.19 |
| U7G U8C U10G C12G | 1.05 |
| U7G U8C U10G C12U | 1.36 |
| U7G U8C U10G C12A | 1.33 |
| U7G U8C U10G U11C C12A C13U | 1.33 |
| U7G U8C U10G U11C C12A C13G | 1.17 |
| U7G U8C U10G U11C C12A C13A | 1.38 |
| U7G U8C U10C U11C C12U C13G | 1.12 |
| U7G U8C U10C U11C C12U C13U | 1.11 |
| U7G U8C U10C U11C C12U C13A | 1.08 |
| U7G U8C U10G C12A C13G | 1.12 |
| U7G U8C U10G C12A C13U | 1.2 |
| U7G U8C U10G C12A C13A | 1.12 |
| U7G U8C U10A C12U C13U | 1.12 |
| U7G U8C U10A C12U C13A | 1.36 |
| U7G U8C U10A C12U C13G | 1.26 |
| U7G U8C G9U U10G U11G C13U | 1.36 |
| U7G U8C G9U U10G U11G C13A | 1.22 |
| U7G U8C G9U U10G U11G C13G | 1.17 |
| U7G U8C U10G U11G C12A | 1.18 |
| U7G U8C U10G U11G C12G | 1.22 |
| U7G U8C U10G U11G C12U | 1.43 |
